The target of this test is gastric inhibitory polypeptide (GIP), species not stated. Nature of the test: modified Schild's assay plot, reporter cell line expressing GIP receptors.

Usually Kd stands for a measure of binding affinity in units of concentration. Low readings indicate higher affinity, high ones lower affinity.

Chain of gastric inhibitory polypeptide (GIP), species not stated (P09681 52-93): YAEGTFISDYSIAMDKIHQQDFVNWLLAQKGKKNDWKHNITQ

B1: LC2/HC2 humanized antibody (antibody, V domains shown)
VH: QVQLVQSGAEVKKPGATVKISCKASGFNIRDYYLHWVQQAPGKGLEWMGWIDPENGDTEYAPKFQGRVTITADTSTNTAYMELSSLRSEDTAVYYCNVYGIYFMDYWGQGTMVTVSS
VL: DIQLTQSPSSVSASVGDRVTITCRASSSISSNSLHWYQQKPGKAPKLLIYRTSNLQSGVPSRFSGSGSGTDYTLTISSLQPEDFATYYCQQGSSFPRMLTFGQGTKLEIKR
notes: CHO supernate in the ELISA; Protein A purified in the neutralization assay; also called mAbH; GIP mAbH
B1: the Kd was 2200 nM.

B2: 10g10 monoclonal antibody (original mouse mAb from hybridoma 10g10) (antibody, V domains shown)
VH: QVQLQESGAELVRSGASVKLSCTASGFNIRDYYLHWIKQRPEQGLEWIGWIDPENGDTEYAPKFQDKATVTADTSSNTAYLQLNSLTSEDTAVYYCNVYGIYFMDYWGQGTTVTVSS
VL: DIQLTQSPSTMAASPGEKITITCSASSSISSNSLHWYQQKPGFSPKLLIYRTSNLASGVPGRFSGSGSGTSYSLTIGTMETEDVATYYCQQGSSFPRMLTFGTGTKLEIKR
notes: Mouse antibody from a hybridoma; also called 10g10 mAb; 10g10 GIP mAb
B2 returned a Kd of 3200 nM.
